This note sets out measurements from article PMC12730240 (Biosensors, 2025).

This experiment deals with T1, Shiga toxin 2 (E. coli (Shiga toxin-producing, STEC)).
T1 construct: source: similarly expressed and purified as previously described [29]; copies: + 5
Put plainly: pull-down. Particulars: both partners purified.

B1: nanobody G1 (NG1), biotinylated (VHH)
VHH: QVQLVESGGGLVQPGESLRLSCVASASTFSTSLMGWVRQAPGKGLESVAEVRTTGGTFYAKSVAGRFTISRDNAKNTLYLQMNSLKAEDTGVYYCTAGAGPIATRYRGQGTQVTVSS
notes: also called B2; source: E. coli SHuffle T7, purified (Ni-NTA IMAC)
B1: the binding result is “binds”.
